Reference: patent publication US20060269550A1
Where no end group is shown, it is not given here. The star is where a group is joined. Octanoyl = CCCCCCCC(=O)*

What was measured:
anti-hGhrelin Fab 2291 [1] = experiment: competitive ELISA; competitor at 0.2 µg/ml preincubated with Fab 2291 0.1 µg/ml, OD of Fab bound to BSA-hGhrelin wells
anti-hGhrelin Fab 2291 [2] = experiment: competitive ELISA; competitor at 5 µg/ml preincubated with Fab 2291 0.1 µg/ml, OD of Fab bound to BSA-hGhrelin wells
anti-hGhrelin Fab 2291 [3] = experiment: competitive ELISA; competitor at 1 µg/ml preincubated with Fab 2291 0.1 µg/ml, OD of Fab bound to BSA-hGhrelin wells

Chain of anti-hGhrelin Fab 2291 (VH, as listed by the source, chain 1 of 2): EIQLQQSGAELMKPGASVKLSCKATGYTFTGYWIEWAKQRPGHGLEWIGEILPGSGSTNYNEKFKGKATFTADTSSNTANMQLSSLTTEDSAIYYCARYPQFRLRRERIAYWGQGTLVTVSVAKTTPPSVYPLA
Chain of anti-hGhrelin Fab 2291 (VL, as listed by the source, chain 2 of 2): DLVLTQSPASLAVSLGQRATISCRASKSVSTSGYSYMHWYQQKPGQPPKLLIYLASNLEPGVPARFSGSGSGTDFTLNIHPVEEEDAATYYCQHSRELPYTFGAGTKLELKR

For GSSFLSPEH(Octanoyl)QRVQQRKESKKPPAKLQPR [hGhrelin-His9-acylated], the Ave. OD (490 nm) (anti-hGhrelin Fab 2291 [1]) was 0.607 OD (490 nm), the Ave. OD (490 nm) (anti-hGhrelin Fab 2291 [2]) was 0.702 OD (490 nm) and the Ave. OD (490 nm) (anti-hGhrelin Fab 2291 [3]) was 0.69 OD (490 nm).

In the case of GSSFLSPEHQRVQQRKESKKPPAKLQPR [des-acyl-hGhrelin, full-length, non-acylated human ghrelin], the Ave. OD (490 nm) (anti-hGhrelin Fab 2291 [1]) is reported as 0.633 OD (490 nm), the Ave. OD (490 nm) (anti-hGhrelin Fab 2291 [2]) is reported as 0.729 OD (490 nm) and the Ave. OD (490 nm) (anti-hGhrelin Fab 2291 [3]) is reported as 0.663 OD (490 nm).
